Measured values from patent US8435548 (BIO FD AND C, dated 2013).
Where no end group is shown, it is not given here. The star is where a group is joined. Galloyl = O=C(c1cc(O)c(O)c(O)c1)*

molecular target: mushroom tyrosinase (1,500 units/ml, Sigma) (mushroom); test: cell-based or functional assay

First: Galloyl-Glu-Cys-Gly [Galloyl-tripeptide (glutamyl-cysteinyl-glycine)]
Second: KECG (also: two galloyl groups, attachment sites shown only in formula IV) [Digalloyl-tetrapeptide (lysyl-glutamyl-cysteinyl-glycine)]
The “Inhibition (%) of tyrosinase activity (absorbance at 490 nm, L-tyrosine substrate, compound at 100 µM)” value (shortened to “Inhibition (%) of tyrosinase activity”) of the first is lower: 34% for the first, 52% for the second.

Compared with Galloyl-KECG [Galloyl-tetrapeptide (lysyl-glutamyl-cysteinyl-glycine)], KYHY (also: two galloyl groups, attachment sites not given here) [Digalloyl-tetrapeptide (lysyl-tyrosyl-histidyl-tyrosine)] is lower in “Inhibition (%) of tyrosinase activity” value: 40% for the first, 21% for the second.

Compared with Galloyl-Tyr-His-Tyr [Galloyl-tripeptide (tyrosyl-histidyl-tyrosine)], Galloyl-YGGFLRKYPK [Galloyl-decapeptide (tyrosyl-glycyl-glycyl-phenylalanyl-leucyl-arginyl-lysyl-tyrosyl-prolyl-lysine)] is lower in “Inhibition (%) of tyrosinase activity” value: 15% for the first, 5% for the second.
